The target of one assay is T1, protein A–Vps39 (S. cerevisiae, UniProt Q07468 1-1049).
T1 sequence: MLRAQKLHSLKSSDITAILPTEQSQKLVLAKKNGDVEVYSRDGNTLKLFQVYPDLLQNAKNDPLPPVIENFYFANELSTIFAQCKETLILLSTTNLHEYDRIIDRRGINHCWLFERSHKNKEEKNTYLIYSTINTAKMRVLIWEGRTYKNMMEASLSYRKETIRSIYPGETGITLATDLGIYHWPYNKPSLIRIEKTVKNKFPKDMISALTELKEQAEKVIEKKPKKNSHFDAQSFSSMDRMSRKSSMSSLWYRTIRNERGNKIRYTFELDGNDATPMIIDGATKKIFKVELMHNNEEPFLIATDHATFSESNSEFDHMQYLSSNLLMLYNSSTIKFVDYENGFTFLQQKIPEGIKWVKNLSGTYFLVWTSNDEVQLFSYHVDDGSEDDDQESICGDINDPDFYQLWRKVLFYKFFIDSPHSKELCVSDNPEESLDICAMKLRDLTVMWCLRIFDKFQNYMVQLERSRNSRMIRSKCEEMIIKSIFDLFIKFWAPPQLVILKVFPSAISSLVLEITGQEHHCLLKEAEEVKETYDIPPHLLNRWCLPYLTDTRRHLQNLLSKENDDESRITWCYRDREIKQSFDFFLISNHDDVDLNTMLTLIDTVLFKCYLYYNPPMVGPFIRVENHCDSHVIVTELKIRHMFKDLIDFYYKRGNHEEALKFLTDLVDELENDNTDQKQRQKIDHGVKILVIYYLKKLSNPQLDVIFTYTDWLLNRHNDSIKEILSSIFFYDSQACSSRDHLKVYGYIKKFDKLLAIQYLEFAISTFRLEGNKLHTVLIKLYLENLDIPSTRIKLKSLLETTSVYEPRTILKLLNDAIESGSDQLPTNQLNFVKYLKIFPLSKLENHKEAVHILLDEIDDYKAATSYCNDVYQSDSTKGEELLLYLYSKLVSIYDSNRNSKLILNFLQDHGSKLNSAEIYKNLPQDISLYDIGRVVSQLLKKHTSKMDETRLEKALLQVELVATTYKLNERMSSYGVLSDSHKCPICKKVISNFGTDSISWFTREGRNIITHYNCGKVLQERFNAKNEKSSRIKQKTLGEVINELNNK
Put plainly: pull-down.

Assay [1] concerns the target Ypt7 (two-hybrid fusion, ypt7 C206S, C208S) (S. cerevisiae, UniProt P32939 1-208, C206S | C208S). Put plainly: two-hybrid.
Assay [2] concerns the target Ypt7 D129A (two-hybrid fusion) (S. cerevisiae, UniProt P32939 1-208, D129A | C206S | C208S). The experiment in a line: two-hybrid.
For a further assay, the target named is T2, Ras1 (two-hybrid fusion) (UniProt P01119 1-309).
T2 sequence: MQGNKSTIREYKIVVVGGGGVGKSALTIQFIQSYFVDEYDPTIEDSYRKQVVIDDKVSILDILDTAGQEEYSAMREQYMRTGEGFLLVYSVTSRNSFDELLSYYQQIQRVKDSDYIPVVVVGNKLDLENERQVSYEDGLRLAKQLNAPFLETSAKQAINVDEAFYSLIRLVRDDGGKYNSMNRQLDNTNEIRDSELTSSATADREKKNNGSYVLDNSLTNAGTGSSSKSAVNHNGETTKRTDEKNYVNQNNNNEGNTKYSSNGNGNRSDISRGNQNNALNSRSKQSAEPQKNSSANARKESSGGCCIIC
Put plainly: two-hybrid.

Assay [3] has as its target T3, Vps21 (two-hybrid fusion) (S. cerevisiae, UniProt P36017 1-210).
T3 sequence: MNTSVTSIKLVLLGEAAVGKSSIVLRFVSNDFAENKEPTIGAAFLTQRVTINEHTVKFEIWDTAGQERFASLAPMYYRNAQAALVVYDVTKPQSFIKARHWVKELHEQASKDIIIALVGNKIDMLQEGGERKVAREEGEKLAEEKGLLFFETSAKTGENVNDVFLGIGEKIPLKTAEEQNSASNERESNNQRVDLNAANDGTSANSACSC
The experiment in a line: two-hybrid.

The target of assay [4] is Ypt7 T22N (two-hybrid fusion) (S. cerevisiae, UniProt P32939 1-208, T22N | C206S | C208S). Put plainly: two-hybrid.
Assay [5] concerns the target Ypt7 I41S (two-hybrid fusion) (S. cerevisiae, UniProt P32939 1-208, I41S | C206S | C208S). The experiment in a line: two-hybrid.
Assay [6] deals with Ypt7 Q68L (two-hybrid fusion) (S. cerevisiae, UniProt P32939 1-208, Q68L | C206S | C208S). The experiment in a line: two-hybrid.
For assay [7], the target named is T4, Vps11 (two-hybrid fusion) (S. cerevisiae, UniProt P12868 1-1029).
T4 sequence: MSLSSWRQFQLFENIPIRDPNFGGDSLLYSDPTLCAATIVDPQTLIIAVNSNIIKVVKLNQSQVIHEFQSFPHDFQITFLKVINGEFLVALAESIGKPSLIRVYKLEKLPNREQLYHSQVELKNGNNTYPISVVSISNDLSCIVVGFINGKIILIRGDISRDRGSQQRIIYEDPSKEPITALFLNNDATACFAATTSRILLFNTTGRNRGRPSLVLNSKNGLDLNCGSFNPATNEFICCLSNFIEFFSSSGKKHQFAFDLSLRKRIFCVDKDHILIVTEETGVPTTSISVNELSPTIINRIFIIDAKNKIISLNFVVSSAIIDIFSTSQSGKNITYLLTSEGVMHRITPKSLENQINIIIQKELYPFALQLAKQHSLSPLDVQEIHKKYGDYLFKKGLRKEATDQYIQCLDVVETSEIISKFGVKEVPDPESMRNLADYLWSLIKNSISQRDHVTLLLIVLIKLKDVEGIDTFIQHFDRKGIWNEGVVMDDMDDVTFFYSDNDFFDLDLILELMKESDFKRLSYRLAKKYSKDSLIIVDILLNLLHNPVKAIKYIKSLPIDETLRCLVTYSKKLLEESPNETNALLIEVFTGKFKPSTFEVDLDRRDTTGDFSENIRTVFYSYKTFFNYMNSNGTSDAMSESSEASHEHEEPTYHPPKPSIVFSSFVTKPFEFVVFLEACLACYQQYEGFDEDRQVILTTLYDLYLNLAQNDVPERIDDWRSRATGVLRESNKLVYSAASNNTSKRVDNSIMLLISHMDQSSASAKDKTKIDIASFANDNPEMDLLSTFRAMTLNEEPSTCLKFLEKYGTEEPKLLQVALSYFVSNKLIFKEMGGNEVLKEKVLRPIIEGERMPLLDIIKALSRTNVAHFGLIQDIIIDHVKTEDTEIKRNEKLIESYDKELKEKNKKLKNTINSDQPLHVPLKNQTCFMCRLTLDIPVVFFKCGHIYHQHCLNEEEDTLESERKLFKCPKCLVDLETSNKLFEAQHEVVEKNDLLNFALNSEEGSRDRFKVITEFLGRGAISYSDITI
Put plainly: two-hybrid.

Assay [8] addresses Ypt7 T40A (two-hybrid fusion) (S. cerevisiae, UniProt P32939 1-208, T40A | C206S | C208S). Put plainly: two-hybrid.

The record followed here is publication PMC2185595 (The Journal of Cell Biology, 2000).

B1: GST-Ypt7 (natural protein)
chain: MSSRKKNILKVIILGDSGVGKTSLMHRYVNDKYSQQYKATIGADFLTKEVTVDGDKVATMQVWDTAGQERFQSLGVAFYRGADCCVLVYDVTNASSFENIKSWRDEFLVHANVNSPETFPFVILGNKIDAEESKKIVSEKSAQELAKSLGDIPLFLTSAKNAINVDTAFEEIARSALQQNQADTEAFEDDYNDAINIRLDGENNSCSC
Consider B1, for which the binding result with protein A–Vps39 is listed as “binds”.

B2: Vps39 (two-hybrid fusion) (natural protein)
chain: MLRAQKLHSLKSSDITAILPTEQSQKLVLAKKNGDVEVYSRDGNTLKLFQVYPDLLQNAKNDPLPPVIENFYFANELSTIFAQCKETLILLSTTNLHEYDRIIDRRGINHCWLFERSHKNKEEKNTYLIYSTINTAKMRVLIWEGRTYKNMMEASLSYRKETIRSIYPGETGITLATDLGIYHWPYNKPSLIRIEKTVKNKFPKDMISALTELKEQAEKVIEKKPKKNSHFDAQSFSSMDRMSRKSSMSSLWYRTIRNERGNKIRYTFELDGNDATPMIIDGATKKIFKVELMHNNEEPFLIATDHATFSESNSEFDHMQYLSSNLLMLYNSSTIKFVDYENGFTFLQQKIPEGIKWVKNLSGTYFLVWTSNDEVQLFSYHVDDGSEDDDQESICGDINDPDFYQLWRKVLFYKFFIDSPHSKELCVSDNPEESLDICAMKLRDLTVMWCLRIFDKFQNYMVQLERSRNSRMIRSKCEEMIIKSIFDLFIKFWAPPQLVILKVFPSAISSLVLEITGQEHHCLLKEAEEVKETYDIPPHLLNRWCLPYLTDTRRHLQNLLSKENDDESRITWCYRDREIKQSFDFFLISNHDDVDLNTMLTLIDTVLFKCYLYYNPPMVGPFIRVENHCDSHVIVTELKIRHMFKDLIDFYYKRGNHEEALKFLTDLVDELENDNTDQKQRQKIDHGVKILVIYYLKKLSNPQLDVIFTYTDWLLNRHNDSIKEILSSIFFYDSQACSSRDHLKVYGYIKKFDKLLAIQYLEFAISTFRLEGNKLHTVLIKLYLENLDIPSTRIKLKSLLETTSVYEPRTILKLLNDAIESGSDQLPTNQLNFVKYLKIFPLSKLENHKEAVHILLDEIDDYKAATSYCNDVYQSDSTKGEELLLYLYSKLVSIYDSNRNSKLILNFLQDHGSKLNSAEIYKNLPQDISLYDIGRVVSQLLKKHTSKMDETRLEKALLQVELVATTYKLNERMSSYGVLSDSHKCPICKKVISNFGTDSISWFTREGRNIITHYNCGKVLQERFNAKNEKSSRIKQKTLGEVINELNNK
With B2, the β-galactosidase activity is around 4 U in assay [1]; 31 U in assay [2]; below 0.25 U with Ras1 (two-hybrid fusion); below 0.25 U in [3]; around 5 U in assay [4]; around 13 U in assay [5]. The figures for the β-galactosidase activity in [6], in [7] and in [8] were around 3 U, 2.8 U and around 13 U, respectively.
